# Test results taken from patent US20240117334A1, “FACTOR B PROTEASES” (Vertex Pharmaceuticals Incorporated, priority 2021, published 2024).
# Numbering of substitutions follows the chain as printed. In names and notes the source's numbering stands.
# B1: chymase C22S/M135T/P150S/S152G/Q166H/D175N/A190T/A226R (enzyme)
# chain: IIGGTESKPHSRPYMAYLEIVTSNGPSKFCGGFLIRRNFVLTAAHCAGRSITVTLGAHNITEEEDTWQKLEVIKQFRHPKYNTSTLHHDIMLLKLKEKASLTLAVGTLPFPSQFNFVPPGRTCRVAGWGRTGVLKSGGDTLQEVKLRLMDPHACSHFRNFDHNLQLCVGNPRKTKSTFKGDSGGPLLCAGVAQGIVSYGRSDAKPPRVFTRISHYRPWINQILQAN
# B2: chymase E21G/C22S/R61H/M135T/F173Y/D175N/A209V/A226R (enzyme)
# chain: B1 chain with E6G, R49H, S136P, G138S, H152Q, F157Y, T177A, A192V
# B3: chymase C22S/P38Q/H100P/L116R/F123L/Q180H/A226R/R235S (enzyme)
# chain: IIGGTESKPHSRPYMAYLEIVTSNGQSKFCGGFLIRRNFVLTAAHCAGRSITVTLGAHNITEEEDTWQKLEVIKQFRHPKYNTSTLPHDIMLLKLKEKASLTRAVGTLPLPSQFNFVPPGRMCRVAGWGRTGVLKPGSDTLQEVKLRLMDPQACSHFRDFDHNLHLCVGNPRKTKSAFKGDSGGPLLCAGVAQGIVSYGRSDAKPPRVFTRISHYSPWINQILQAN
# B4: chymase C22S/L99Y/F173L/K192R/Y215H/R217T/S218V/A226R (enzyme)
# chain: IIGGTESKPHSRPYMAYLEIVTSNGPSKFCGGFLIRRNFVLTAAHCAGRSITVTLGAHNITEEEDTWQKLEVIKQFRHPKYNTSTYHHDIMLLKLKEKASLTLAVGTLPFPSQFNFVPPGRMCRVAGWGRTGVLKPGSDTLQEVKLRLMDPQACSHLRDFDHNLQLCVGNPRKTKSAFRGDSGGPLLCAGVAQGIVSHGTVDAKPPRVFTRISHYRPWINQILQAN
# B5: chymase C22S/F41G/L99H/G151T/F173Y/Y215K/A226R (enzyme)
# chain: B4 chain with F29G, Y86H, G137T, L157Y, R179K, H198K, T200R, V201S
# B6: chymase C22S/L99R/K192R/S218L/A226R (enzyme)
# chain: B4 chain with Y86R, L157F, H198Y, T200R, V201L
# B7: chymase C22S/F41L/L99H/F173L/Y215K/A226R (enzyme)
# chain: B4 chain with F29L, Y86H, R179K, H198K, T200R, V201S
# B8: chymase C22S/K40L/F41V/G151R/K192R/A226R (enzyme)
# chain: B4 chain with K28L, F29V, Y86L, G137R, L157F, H198Y, T200R, V201S
# B9: chymase C22S/F41L/L99H/G151T/F173Y/Y215K/A226R (enzyme)
# chain: B4 chain with F29L, Y86H, G137T, L157Y, R179K, H198K, T200R, V201S
# B10: chymase C22S/K93Q/G119D/F173S/K192R/A226R (enzyme)
# chain: B4 chain with K80Q, Y86L, G106D, L157S, H198Y, T200R, V201S
# B11: chymase C22S/F41K/L99H/G151A/F173Y/Y215K/R217S/A226R (enzyme)
# chain: B4 chain with F29K, Y86H, G137A, L157Y, R179K, H198K, T200S, V201S
# B12: chymase C22S/V138I/L160V/S189T/A226R (enzyme)
# chain: B1 chain with T122M, V125I, S136P, G138S, L146V, H152Q, N159D, S176T, T177A
# B13: chymase C22S/F41R/L99H/G151T/F173L/Y215K/A226R (enzyme)
# chain: B4 chain with F29R, Y86H, G137T, R179K, H198K, T200R, V201S
# B14: chymase C22S/L99W/F173K/K192R/R217S/S218V/A226R (enzyme)
# chain: B4 chain with Y86W, L157K, H198Y, T200S
# B15: chymase C22S/F41G/L99H/F173Y/Y215K/A226R (enzyme)
# chain: B4 chain with F29G, Y86H, L157Y, R179K, H198K, T200R, V201S
# B16: chymase C22S/F41R/L99H/G151T/F173Y/Y215K/A226R (enzyme)
# chain: B4 chain with F29R, Y86H, G137T, L157Y, R179K, H198K, T200R, V201S
# B17: chymase C22S/L99H/F173Y/K192R/Y215K/R217S/S218V/A226R (enzyme)
# chain: B4 chain with Y86H, L157Y, H198K, T200S
# B18: chymase C22S/F41V/L99H/G151R/F173S/Y215K/A226R (enzyme)
# chain: B4 chain with F29V, Y86H, G137R, L157S, R179K, H198K, T200R, V201S
# B19: chymase C22S/F41V/L99H/F173L/Y215K/A226R (enzyme)
# chain: B4 chain with F29V, Y86H, R179K, H198K, T200R, V201S
# B20: chymase C22S/F41V/L99H/G151T/F173Y/Y215K/A226R (enzyme)
# chain: B4 chain with F29V, Y86H, G137T, L157Y, R179K, H198K, T200R, V201S
# B21: chymase C22S/F41G/L99H/G151T/F173L/Y215K/A226R (enzyme)
# chain: B4 chain with F29G, Y86H, G137T, R179K, H198K, T200R, V201S
# B22: chymase C22S/L99R/F173Y/S218L/A226R (enzyme)
# chain: B4 chain with Y86R, L157Y, R179K, H198Y, T200R, V201L
# B23: chymase C22S/F41L/L99H/G151T/F173L/Y215K/A226R (enzyme)
# chain: B4 chain with F29L, Y86H, G137T, R179K, H198K, T200R, V201S
# B24: chymase C22S/F41V/L99H/F173Y/Y215K/A226R (enzyme)
# chain: B4 chain with F29V, Y86H, L157Y, R179K, H198K, T200R, V201S
# B25: chymase C22S/F41I/L99H/G151K/F173Y/Y215K/R217G/A226R (enzyme)
# chain: B4 chain with F29I, Y86H, G137K, L157Y, R179K, H198K, T200G, V201S
# B26: chymase C22S/F41R/L99H/F173Y/Y215K/A226R (enzyme)
# chain: B4 chain with F29R, Y86H, L157Y, R179K, H198K, T200R, V201S
# B27: chymase C22S/F41L/L99H/F173Y/Y215K/A226R (enzyme)
# chain: B4 chain with F29L, Y86H, L157Y, R179K, H198K, T200R, V201S
# B28: chymase C22S/K40L/F41A/K192R/A226R (enzyme)
# chain: B4 chain with K28L, F29A, Y86L, L157F, H198Y, T200R, V201S
# B29: chymase C22S/F41R/L99H/F173L/Y215K/A226R (enzyme)
# chain: B4 chain with F29R, Y86H, R179K, H198K, T200R, V201S
# B30: chymase C22S/L99R/F173Y/K192R/A226R (enzyme)
# chain: B4 chain with Y86R, L157Y, H198Y, T200R, V201S
# B31: chymase C22S/K40M/F41V/G151R/K192R/A226R (enzyme)
# chain: B4 chain with K28M, F29V, Y86L, G137R, L157F, H198Y, T200R, V201S
# B32: chymase C22S/K111E/F173L/Y215H/A226R (enzyme)
# chain: B4 chain with Y86L, K98E, R179K, T200R, V201S
# B33: chymase C22S/F41R/L99H/G151A/F173S/Y215K/R217T/A226R (enzyme)
# chain: B4 chain with F29R, Y86H, G137A, L157S, R179K, H198K, V201S
# B34: chymase C22S/L99R/F173Y/K192R/S218L/A226R (enzyme)
# chain: B4 chain with Y86R, L157Y, H198Y, T200R, V201L
# B35: chymase C22S/F41V/L99H/G151T/F173L/Y215K/A226R (enzyme)
# chain: B4 chain with F29V, Y86H, G137T, R179K, H198K, T200R, V201S
# B36: chymase C22S/K40M/F41V/K192R/A226R (enzyme)
# chain: B4 chain with K28M, F29V, Y86L, L157F, H198Y, T200R, V201S
# B37: chymase C22S/L99F/F173K/K192R/R217S/S218I/A226R (enzyme)
# chain: B4 chain with Y86F, L157K, H198Y, T200S, V201I
# B38: chymase C22S/F41G/L99H/F173L/Y215K/A226R (enzyme)
# chain: B4 chain with F29G, Y86H, R179K, H198K, T200R, V201S
# B39: chymase C22S/F173L/Y215H/A226R (enzyme)
# chain: B4 chain with Y86L, R179K, T200R, V201S
# B40: chymase C22S/L99W/F173K/R217S/S218R/A226R (enzyme)
# chain: B4 chain with Y86W, L157K, R179K, H198Y, T200S, V201R
# Target: Human Factor B (human) (UniProt P00751)
# Sequence (P00751 26-764 limits assumed): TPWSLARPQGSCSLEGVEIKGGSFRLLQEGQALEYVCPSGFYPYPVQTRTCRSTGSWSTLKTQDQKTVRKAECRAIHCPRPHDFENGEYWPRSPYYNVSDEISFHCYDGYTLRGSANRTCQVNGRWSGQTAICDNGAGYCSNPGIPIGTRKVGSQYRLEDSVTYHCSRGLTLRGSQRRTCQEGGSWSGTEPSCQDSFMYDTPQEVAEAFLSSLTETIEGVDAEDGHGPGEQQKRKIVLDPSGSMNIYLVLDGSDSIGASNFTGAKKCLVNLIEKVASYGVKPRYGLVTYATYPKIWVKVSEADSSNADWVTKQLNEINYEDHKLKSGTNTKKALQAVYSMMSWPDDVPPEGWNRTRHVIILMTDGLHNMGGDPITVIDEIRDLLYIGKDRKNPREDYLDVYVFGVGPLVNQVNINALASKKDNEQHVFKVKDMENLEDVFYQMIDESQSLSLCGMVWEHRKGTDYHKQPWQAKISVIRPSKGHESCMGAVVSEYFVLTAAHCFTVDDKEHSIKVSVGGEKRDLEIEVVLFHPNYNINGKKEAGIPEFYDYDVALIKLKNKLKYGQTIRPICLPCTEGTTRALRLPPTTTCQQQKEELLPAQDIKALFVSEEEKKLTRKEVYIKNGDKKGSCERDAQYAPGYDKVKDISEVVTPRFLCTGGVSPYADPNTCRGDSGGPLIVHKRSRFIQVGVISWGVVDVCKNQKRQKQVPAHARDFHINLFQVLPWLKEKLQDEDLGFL
# Assay: cell-based or functional assay
fB Cleavage EC50 [µM],"fB Cleavage, 64% A2M-depl plasma EC50 [µM]","fB Cleavage, 64% plasma EC50 [µM]","fB Cleavage, 80% plasma EC50 [µM]",Binder
3.16,,,,B1
1.26,,,,B2
3.74,,,,B3
,4.58,12.4,,B4
6.6,,,,B5
7.51,,,,B6
7.89,,,,B7
7.5,,,,B8
3.23,,,,B9
7.77,,,,B10
1.31,5.75,5.69,18.6,B11
7.13,,,,B12
4.8,,,,B13
2.49,,,,B14
6.65,,,,B15
3.22,,,,B16
3.46,,,,B17
4.78,,,,B18
8.73,,,,B19
5.33,,,,B20

fB Cleavage EC50 [µM],"fB Cleavage, 64% A2M-depl plasma EC50 [µM]","fB Cleavage, 64% plasma EC50 [µM]","fB Cleavage, 80% plasma EC50 [µM]",Binder
11.5,,,,B21
0.546,,,,B22
4.17,,,,B23
6.06,,,,B24
7.77,,,,B25
4.8,,,,B26
3.45,,,,B27
7.39,,,,B28
6.64,,,,B29
3.28,,,,B30
7.77,,,,B31
9.01,,,,B32
2.25,2.88,3.4,,B33
0.555,,,,B34
5.42,,,,B35
7.77,,,,B36
4,,,,B37
10.2,,,,B38
5.99,,,,B39
2.66,,,,B40
